Consider three molecules from article PMC11315185 (Heliyon, 2024).

The target of the experiment is CDC48A-ND1 (a CDC48A construct containing the N and first ATPase domains) (Arabidopsis thaliana, UniProt P54609 1-484). In words: ITC. Background: ITC needs no label: the signal is the heat of the interaction.
Sequence of CDC48A-ND1 (a CDC48A construct containing the N and first ATPase domains) (P54609 1-484): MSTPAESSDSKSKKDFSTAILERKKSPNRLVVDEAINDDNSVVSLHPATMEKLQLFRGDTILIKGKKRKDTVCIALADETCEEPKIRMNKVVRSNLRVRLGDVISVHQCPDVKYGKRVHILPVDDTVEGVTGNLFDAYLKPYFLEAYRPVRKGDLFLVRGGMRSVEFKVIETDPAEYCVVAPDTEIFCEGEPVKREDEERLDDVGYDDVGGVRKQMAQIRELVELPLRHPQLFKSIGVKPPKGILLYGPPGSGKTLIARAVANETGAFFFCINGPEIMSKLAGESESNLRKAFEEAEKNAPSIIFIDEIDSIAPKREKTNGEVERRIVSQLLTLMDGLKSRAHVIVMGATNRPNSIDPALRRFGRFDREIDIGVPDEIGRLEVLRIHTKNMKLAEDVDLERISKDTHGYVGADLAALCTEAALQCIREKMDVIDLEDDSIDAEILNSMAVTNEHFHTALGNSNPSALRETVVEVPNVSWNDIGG

B1: P-NAD5_(SHP-UBX) (P-NAD5 with helix1 and the SEP domain deleted) (other)
chain: QVQLVESGGALVQPGGSLRLSCAASGFPVNRYSMRWYRQAPGKEREWVAGMSSAGDRSSYEDSVKGRFTISRDDARNTVYLQMNSLKPEDTAVYYCNVNVGFEYWGQGTQVTVSSEPPKPKNPFQGVGRTLGASGSGSSSAPQASSAPMNVAPAPSRGLVVDPAAPTTSIQLRLADGTRLVSRFNNHHTVRDVRGFIDASRPGGSKEYQLLTMGFPPKQLTELDQTIEQAGIANAVVIQKF
As usually defined, the Kd is the constant that tells how readily two partners part at equilibrium. The low end stands for tighter binding, the high end for weaker binding. The term stoichiometry N denotes a count of units in the complex or per binding partner. For the molecule B1, the Kd worked out at 12.3 ± 3.7 µM and the “stoichiometry N” value came to 1.

B2: Arabidopsis PUX3 (natural protein, Arabidopsis thaliana, UniProt Q9SUG6 1-302, looked up)
chain: MSSKDKKLSKPTSGRTGGIRTLSDLNRRSEPDSDSDSDGPQEYFTGGEKSGMLVQDPTKEPKHDDVDEIFNQARQLGAVEGPLEHPSSSRSFTGTGRLLSGESVPTALQQPEPVIHNIIFWSNGFTVDDGPLRKLDDPENASFLDSIRKSECPKELEPVDKRAPVHVNLMRRDEKCPEKEKLKVSFQGVGRTLGGASSSTASSQSNLTDVAAVQSPLQSLVVDETLPSTSIQLRLADGTRMVAKFNNHHTVNDIRGFIEFSRPGNPNNYTLQVMGFPPKPLTDPSQTIEQAGLASSVVIQKF
Regarding B2, the equilibrium dissociation constant (Kd) is 5.6 ± 1.6 µM and the “stoichiometry N” value was roughly 0.5.

B3: Arabidopsis PUX4 (natural protein, Arabidopsis thaliana, UniProt Q8RWU7 1-303, looked up)
chain: MSSKDKKPSKPSSSRGGIRTLSDLNRRSGPDSDSDSDGPQEYYTGGEKSGMLVQDPSKKDDVDEIFNQARQLGAVEGPLEPPPSSRSFTGTGRLLSGENVPTGNQQPEPVVHNIVFWSNGFTIDDGPLRKLDDPENASFLESIRKSECPKELEPADRRAPVHVNLMRKEEKCPERQKRRVSFQGVGRTLGGSNEGSGSSSPVAPDSAPIPIQTEPAPSQSLVIDETVPTTSIQLRLADGTRLVAKFNHHHTVNDIRGFIDSSRPGASLNYQLQTMGFPPKPLTDLTQTIEEAGLANSVVLQKF
As to B3, the Kd is 2.7 ± 0.9 µM and the “stoichiometry N” value is roughly 0.5.
